# Results published in publication PMC11655906, “Required minimal protein domain of flower for synaptobrevin2 endocytosis in cytotoxic T cells” (Cellular and Molecular Life Sciences: CMLS, 2024).
# “And” between values parts separate entries of the source, which are not always exact repeats. Identical values can stand only once.
# Target: the molecule itself
# Test: native gel or EMSA; native PAGE (4-16% Bis-Tris, G-250 additive) of lysates of transfected Fwe KO mouse CTLs (modified RIPA: 50 mM Tris pH 7.5, 50 mM NaCl, 1% Triton-X-100, 1 mM EDTA), western blot with anti-DsRed recognising mTFP; oligomeric state read from band size
row,Protein,stoichiometry N
1,"mouse Flower isoform 1 with C-terminal mTFP (mFwe1-mTFP) (natural protein, UniProt Q8BG21-3 1-106, looked up, Whole isoform cDNA synthesised (BioCAT) and subcloned into pMAX-mTFP; also called Mouse Fwe1; source: Fwe KO mouse CTLs, transfected with pMAX plasmid, in lysate) MSGSGAAGAAAGPAPPAQEEGMTWWYRWLCRLAGVLGAVSCAISGLFNCVTIHPLNIAAGVWMIMNAFILLLCEAPFCCQFVEFANTVAEKVDRLRSWQKAVFYCG",4 and 6 and 2
2,"mouse Flower isoform 2, full-length form, with C-terminal mTFP (mFwe2-mTFP) (natural protein, UniProt Q8BG21-1 1-171, looked up, mouse Flower (Fwe); also called Mouse Flower 2; source: Fwe KO mouse CTLs, transfected with pMAX plasmid, in lysate) MSGSGAAGAAAGPAPPAQEEGMTWWYRWLCRLAGVLGAVSCAISGLFNCVTIHPLNIAAGVWMIMNAFILLLCEAPFCCQFVEFANTVAEKVDRLRSWQKAVFYCGMAIVPIVMSLTLTTLLGNAIAFATGVLYGLSALGKKGDAISYARIQQQRQQADEEKLAETFEGEL",4 and 2
3,"mouse Flower isoform 3 with C-terminal mTFP (mFwe3-mTFP) (natural protein, UniProt Q8BG21-2 1-128, looked up, source: Fwe KO mouse CTLs, transfected with pMAX plasmid, in lysate) MSGSGAAGAAAGPAPPAQEEGMTWWYRWLCRLAGVLGAVSCAISGLFNCVTIHPLNIAAGVWMIMNAFILLLCEAPFCCQFVEFANTVAEKVDRLRSWQKAVFYCGHGEALRGAWPDVRLPNRNTISL",2 and 4 and 6
4,"human Flower isoform 4 with C-terminal mTFP (hFwe4-mTFP) (natural protein, UniProt Q9UGQ2-1 1-172, looked up, human Flower (CACFD1) isoform hFwe4, contains exon 3 and both the YRWL and YARI motifs; 93% identical to mFwe2; also called human isoform Fwe4; source: Fwe KO mouse CTLs, transfected with pMAX plasmid, in lysate) MSSSGGAPGASASSAPPAQEEGMTWWYRWLCRLSGVLGAVSCAISGLFNCITIHPLNIAAGVWMIMNAFILLLCEAPFCCQFIEFANTVAEKVDRLRSWQKAVFYCGMAVVPIVISLTLTTLLGNAIAFATGVLYGLSALGKKGDAISYARIQQQRQQADEEKLAETLEGEL",2 and 4
5,"Drosophila Flower isoform Ubi with C-terminal mTFP (dUbi-mTFP) (natural protein, UniProt Q95T12-1 1-194, looked up, Drosophila Flower (Fwe), ubiquitous splice isoform dUbi; the three Drosophila isoforms are identical in aa 1-146 and differ in the C-terminus; also called dFwe-Ubi-mTFP; Drosophila Ubi isoform; source: Fwe KO mouse CTLs, transfected with pMAX plasmid, in lysate) MSFAEKITGLLARPNQQDPIGPEQPWYLKYGSRLLGIVAAFFAILFGLWNVFSIITLSVSCLVAGILQMVAGFVVMLLEAPCCFVCFGQVNEIAEKVESKPLYFRAGLYIAMAIPPIILCFGLASLFGSGLIFGTGVVYGMMALGKKASAEDMRAAAQQTFGGNTPAQTNDRAGIVNNAQPFSFTGAVGTDSNV",2 and 4
